{"source": "paper PMC8934265", "binders": {"B1": {"name": "CCAAT box probe (dsDNA)", "DNA 1": "AGTTGTAGGCCTCTGCTTCCTGACCAATCTACAGAATAGGCTCCGCCTTC", "DNA 2": "AGTTGAAGGCGGAGCCTATTCTGTAGATTGGTCAGGAAGCAGAGGCCTAC"}, "B2": {"name": "CCAAT box wild-type competitor (+CAAT) (dsDNA)", "DNA 1": "AGTTGTAGGCCTCTGCTTCCTGACCAATCTACAGAATAGGCTCCGCCTTC", "DNA 2": "AGTTGAAGGCGGAGCCTATTCTGTAGATTGGTCAGGAAGCAGAGGCCTAC"}, "B3": {"name": "CCAAT box mutant competitor (+mut) (dsDNA)", "DNA 1": "AGTTGTAGGCCTCTGCTTCCTGACATGTCTACAGAATAGGCTCCGCCTTC", "DNA 2": "AGTTGAAGGCGGAGCCTATTCTGTAGACATGTCAGGAAGCAGAGGCCTAC"}}, "key": {"[1]": {"molecular_target": "T1, NFYA-1 (T08D10.1), MBP fusion;NFYB-1, MBP fusion;NFYC-1, MBP fusion (Caenorhabditis elegans;Caenorhabditis …, UniProt G5EEG1;O17286;O17072 1-482;1-403;1-232, ||)", "T1 sequence 1": "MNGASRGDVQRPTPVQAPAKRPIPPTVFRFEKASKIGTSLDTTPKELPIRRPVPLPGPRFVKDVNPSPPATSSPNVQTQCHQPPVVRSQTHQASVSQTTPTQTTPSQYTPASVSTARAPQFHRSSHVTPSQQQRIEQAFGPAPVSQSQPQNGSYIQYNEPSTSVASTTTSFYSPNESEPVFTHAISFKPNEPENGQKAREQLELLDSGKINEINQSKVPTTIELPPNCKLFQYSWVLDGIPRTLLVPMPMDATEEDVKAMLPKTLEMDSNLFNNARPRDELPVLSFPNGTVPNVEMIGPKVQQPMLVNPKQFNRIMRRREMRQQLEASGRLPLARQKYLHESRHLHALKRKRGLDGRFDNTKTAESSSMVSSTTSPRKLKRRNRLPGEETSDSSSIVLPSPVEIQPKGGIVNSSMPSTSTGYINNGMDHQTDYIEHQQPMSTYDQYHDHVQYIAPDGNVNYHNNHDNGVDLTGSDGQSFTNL", "T1 sequence 2": "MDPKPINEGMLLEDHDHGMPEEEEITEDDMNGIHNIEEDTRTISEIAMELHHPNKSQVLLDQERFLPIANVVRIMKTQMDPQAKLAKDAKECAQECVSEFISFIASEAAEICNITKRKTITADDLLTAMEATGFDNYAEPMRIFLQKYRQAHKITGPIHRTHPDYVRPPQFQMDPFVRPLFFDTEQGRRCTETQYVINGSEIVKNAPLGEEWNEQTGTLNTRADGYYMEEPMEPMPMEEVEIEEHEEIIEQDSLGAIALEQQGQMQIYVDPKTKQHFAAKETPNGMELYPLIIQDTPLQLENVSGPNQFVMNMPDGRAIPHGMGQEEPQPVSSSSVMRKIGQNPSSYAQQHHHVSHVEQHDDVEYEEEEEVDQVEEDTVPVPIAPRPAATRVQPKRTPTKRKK", "T1 sequence 3": "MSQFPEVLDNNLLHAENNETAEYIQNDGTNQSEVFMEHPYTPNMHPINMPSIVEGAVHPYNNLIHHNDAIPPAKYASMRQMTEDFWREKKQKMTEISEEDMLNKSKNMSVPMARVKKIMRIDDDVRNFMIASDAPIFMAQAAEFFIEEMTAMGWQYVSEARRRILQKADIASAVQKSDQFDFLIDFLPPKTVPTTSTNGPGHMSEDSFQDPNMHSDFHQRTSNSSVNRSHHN", "assay": "EMSA"}, "[2]": {"molecular_target": "T1, NFYA-1 (T08D10.1), MBP fusion;NFYB-1, …", "assay": "competition"}, "[3]": {"molecular_target": "T1, NFYA-1 (T08D10.1), MBP fusion;NFYB-1, …", "assay": "competition", "remark": "listed apart in the source"}}}
{"binder": "B1", "values": [{"measurement": "binding result", "setting": "[1]", "result": "binds"}]}
{"binder": "B2", "values": [{"measurement": "binding result", "setting": "[2]", "result": "binds"}]}
{"binder": "B3", "values": [{"measurement": "binding result", "setting": "[3]", "result": "no binding"}]}
